The values below come from US10239925B2, “Peptides and combination of peptides for use in immunotherapy against ovarian cancer and other cancers” (IMMATICS BIOTECHNOLOGIES GMBH, priority 2015, dated 2019).

The target in this assay is HLA-A*02:01 (Homo sapiens, UniProt P04439, D140Y/D185E/D98H/E176V/E277Q/G131W/G231S/I119V/I121R/I166T/I218V/L300P/L318F/N151K/N90K/P208A/P217A/Q86G/Q94H/R138H/R169H/T345S). As to the kind of experiment: MHC binding assay (UV-ligand exchange, anti-β2m ELISA, peptide exchange yield). The settings on record: binding to HLA-A*02:01. A digest of the protocol:
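Yield of stabilized complexes quantified via the β2m light chain in an ELISA (streptavidin capture, 100-fold diluted monomers, HRP anti-β2m 2 ug/ml at 37 °C, TMB, A450). The complexes come from UV-triggered replacement of a photocleavable ligand by the candidate peptide.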

On to “516 (AVGPASILKEV; listed as Homo sapiens) [compound 516]”, for which the “Peptide exchange (MHC class I binding score, peptide exchange yield)” value (shortened to “Peptide exchange”) is ““++” (>20% = ++)”.
With “517 (LLMPIPEGLTL; listed as Homo sapiens) [compound 517]”, the “Peptide exchange” value was ““+++” (>50 = +++)”.
On to “519 (GLLHLTLLL; listed as Homo sapiens) [compound 519]”, for which the “Peptide exchange” value was ““+++” (>50 = +++)”.
For “520 (LAVHPSGVAL; listed as Homo sapiens) [compound 520]”, the “Peptide exchange” value is ““+” (>10% = +)”.
As for “521 (MLLTKLPTI; listed as Homo sapiens) [compound 521]”, the “Peptide exchange” value is recorded as ““+++” (>50 = +++)”.
Take “522 (TLWYRSPEV; listed as Homo sapiens) [compound 522]”: the “Peptide exchange” value was ““++” (>20% = ++)”.
The entry for “523 (YQIPRTFTL; listed as Homo sapiens) [compound 523]” is ““++” (>20% = ++)”; for “524 (ALIENLTHQI; listed as Homo sapiens) [compound 524]” it is ““++” (>20% = ++)”.
The entry for “525 (VLLEAGEGLVTI; listed as Homo sapiens) [compound 525]” is ““+++” (>50 = +++)”; for “526 (RLAEVGQYEQV; listed as Homo sapiens) [compound 526]” it is ““++” (>20% = ++)”; for “527 (FLLEPGNLEV; listed as Homo sapiens) [compound 527]” it is ““++++” (>75% = ++++)”.
For “528 (SVAEGRALMSV; listed as Homo sapiens) [compound 528]”, the “Peptide exchange” value was ““+++” (>50 = +++)”.
For the substance “529 (LLADELITV; listed as Homo sapiens) [compound 529]”, the “Peptide exchange” value is ““+++” (>50 = +++)”.
The entry for “530 (VMYADIGGMDI; listed as Homo sapiens) [compound 530]” is ““+++” (>50 = +++)”.
The entry for “531 (YTLPIASSIRL; listed as Homo sapiens) [compound 531]” is ““+++” (>50 = +++)”.
Turning to “537 (TLAPGEVLRSV; listed as Homo sapiens) [compound 537]”, the “Peptide exchange” value was ““+++” (>50 = +++)”.
The entry for “538 (LLLAHIIAL; listed as Homo sapiens) [compound 538]” is ““++” (>20% = ++)”; for “539 (ALFDAQAQV; listed as Homo sapiens) [compound 539]” it is ““+++” (>50 = +++)”; for “541 (SMLEPVPEL; listed as Homo sapiens) [compound 541]” it is ““+++” (>50 = +++)”.
For “542 (RVWDISTVSSV; listed as Homo sapiens) [compound 542]”, the “Peptide exchange” value is ““+++” (>50 = +++)”.
“543 (GLLPTPITQQASL; listed as Homo sapiens) [compound 543]”: the “Peptide exchange” value is reported as ““+++” (>50 = +++)”.
On to “544 (LLWDVPAPSL; listed as Homo sapiens) [compound 544]”, for which the “Peptide exchange” value is ““+++” (>50 = +++)”.
Turning to “545 (LLADLLHNV; listed as Homo sapiens) [compound 545]”, the “Peptide exchange” value was ““+++” (>50 = +++)”.
The entry for “546 (VMIAGKVAVV; listed as Homo sapiens) [compound 546]” is ““+++” (>50 = +++)”; for “547 (TLDITPHTV; listed as Homo sapiens) [compound 547]” it is ““+++” (>50 = +++)”; for “548 (ALWENPESGEL; listed as Homo sapiens) [compound 548]” it is ““++” (>20% = ++)”.
The entry for “549 (AMLENASDIKL; listed as Homo sapiens) [compound 549]” is ““+++” (>50 = +++)”.
Turning to “550 (FLYDEIEAEVNL; listed as Homo sapiens) [compound 550]”, the “Peptide exchange” value was ““+++” (>50 = +++)”.
Turning to “551 (KLYESLLPFA; listed as Homo sapiens) [compound 551]”, the “Peptide exchange” value is on record as ““+++” (>50 = +++)”.
The entry for “552 (GLLDLPFRVGV; listed as Homo sapiens) [compound 552]” is ““+++” (>50 = +++)”.
The entry for “553 (SLLNQDLHWSL; listed as Homo sapiens) [compound 553]” is ““+++” (>50 = +++)”; for “554 (LLMPSSEDLLL; listed as Homo sapiens) [compound 554]” it is ““+++” (>50 = +++)”; for “555 (YVLEGLKSV; listed as Homo sapiens) [compound 555]” it is ““+++” (>50 = +++)”.
With “556 (FLTDLEDLTL; listed as Homo sapiens) [compound 556]”, the “Peptide exchange” value is recorded as ““+++” (>50 = +++)”.
For the substance “557 (KLYDDMIRL; listed as Homo sapiens) [compound 557]”, the “Peptide exchange” value is ““+++” (>50 = +++)”.
For the substance “558 (GLLENIPRV; listed as Homo sapiens) [compound 558]”, the “Peptide exchange” value is ““+++” (>50 = +++)”.
Turning to “559 (VTVPPGPSL; listed as Homo sapiens) [compound 559]”, the “Peptide exchange” value was ““++” (>20% = ++)”.
In the case of “560 (ALWDIETGQQTTT; listed as Homo sapiens) [compound 560]”, the “Peptide exchange” value is reported as ““+++” (>50 = +++)”.
With “561 (YLQLTQSEL; listed as Homo sapiens) [compound 561]”, the “Peptide exchange” value is recorded as ““+++” (>50 = +++)”.
As for “562 (YLEELPEKLKL; listed as Homo sapiens) [compound 562]”, the “Peptide exchange” value is listed as ““+++” (>50 = +++)”.
Take “563 (WLLPYNGVTV; listed as Homo sapiens) [compound 563]”: the “Peptide exchange” value was ““+++” (>50 = +++)”.
For the substance “564 (TVTNAVVTV; listed as Homo sapiens) [compound 564]”, the “Peptide exchange” value was ““+++” (>50 = +++)”.
The entry for “565 (ALQETPTSV; listed as Homo sapiens) [compound 565]” is ““++” (>20% = ++)”; for “566 (VIADGGIQNV; listed as Homo sapiens) [compound 566]” it is ““++” (>20% = ++)”; for “567 (SLLPLDDIVRV; listed as Homo sapiens) [compound 567]” it is ““+++” (>50 = +++)”.
Regarding “568 (TLYDIAHTPGV; listed as Homo sapiens) [compound 568]”, the “Peptide exchange” value was ““++++” (>75% = ++++)”.
